Measured values published in article PMC3715890 (2013).

Biological target: HIF-1alpha PAS-B (235-350) (Homo sapiens, UniProt Q16665)
Test: ITC

Chain of HIF-1alpha PAS-B (235-350) (Q16665 235-350): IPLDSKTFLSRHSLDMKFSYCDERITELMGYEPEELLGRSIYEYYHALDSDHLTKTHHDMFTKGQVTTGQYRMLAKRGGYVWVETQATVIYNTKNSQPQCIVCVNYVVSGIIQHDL

cyclo(C(S‑S‑Tat)LLFVY) [P1 (Tat-cyclo-CLLFVY)] gave a Kd of 124 nM.
